# ± gives the standard deviation.
# Assay: protein stability index of a GFP-peptide fusion (GPS, HEK-293T) (PSI 1-6); higher = more stable
# Details: c terminus: a fixed tail appended
# 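Also: 24-mer peptide tiles fused after GFP, lentivirally expressed, FACS-sorted into six equal bins by GFP/DsRed ratio, decoded by Illumina sequencing, PSI is the read-weighted mean bin number.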
Sequence,protein stability index (treatment: DMSO),"protein stability index (treatment: MLN4924 1 uM, 8 h)"
GTLIGVGQSVTAVGRIIAPLLSGV [MFSD9],2.03 ± 0.17,2.2 ± 0.29
ADNMEFEQCIKLWLHALHLRQKGN [FEM1B],2.56 ± 0.15,2.72 ± 0.2
KTIEELRDKILTATIENNRVILEI [KRT13],2.57 ± 0.46,2.71 ± 0.64
CVLADRLDCADALLKAGADVNKTD [INVS],4.4 ± 0.48,4.17 ± 0.42
ESITSAGRDDLESFQLEISGFLKE [FAM98B],3.9 ± 0.26,4.1 ± 0.28
QVPYPPRQLLRDFQSRLPYQYLHY [P3H4],2.45 ± 0.072,2.24 ± 0.35
EVNSAEELEGLIADPDEMRMQALL [FEM1C],4.89 ± 0.16,5 ± 0.3
PTGRLPALVRWWNGIGAVLDFTHP [MYORG],2.15 ± 0.28,2.14 ± 0.033
ILIREAQNQPIDKARKTYERLVAQ [CSTF3],2.83 ± 0.2,2.82 ± 0.11
HLEEPGETQNAFLNERKQASAIKK [CHGB],5.11 ± 0.14,5.2 ± 0.28
EIFGPVTCVVPFDSEEEVIERANN [ALDH8A1],5.18 ± 0.17,5.17 ± 0.22
YSLVLELSDSGAFRRSLHDPDGLV [APMAP],2.28 ± 0.48,2.14 ± 0.38
LEEVAVQQTGDDDEVDDFEDFIFS [PBXIP1],5.43 ± 0.36,5.41 ± 0.27
NVHATTATGDTALTYACENGHTDV [ANKRD17],4.82 ± 0.33,4.88 ± 0.19
EQTYHAKLENARLSSEMNTSTVNS [LMNB1],4.88 ± 0.14,5.03 ± 0.19
PPARGTLKTSNLPEELRKVFITYS [TRAF3IP2],2.53 ± 0.37,2.53 ± 0.12
VVGNWQYFFPVIFSKASDSLQLVF [MAGEA6],3.21 ± 0.34,3.32 ± 0.63
QGDPAFPEMNGNGAVAPMDFTTAA [NOL4L],5.09 ± 0.2,4.98 ± 0.16
MTLPLLRQTSTKAVQHFYNIKLEG [ESRRG],2.48 ± 0.18,2.44 ± 0.26
DGNLCLHVPNPPSGISFPSVVDHP [HESX1],3.73 ± 0.5,3.78 ± 0.15
TDDDGQAPEAKDGSSFSGRVFRVT [APMAP],4.94 ± 0.24,4.74 ± 0.23
MSPGDCPPETTETPKCSSPRGQEG [YJU2B],5.44 ± 0.43,5.5 ± 0.11
CGVILYILLVGYPPFWDEDQHRLY [CAMK2A],2.98 ± 0.6,3.24 ± 0.91

Sequence,protein stability index (treatment: DMSO),"protein stability index (treatment: MLN4924 1 uM, 8 h)"
RSVSDQFYRYKMPRLIAKVEGKGN [EIF5],3.47 ± 0.19,3.46 ± 0.21
ETGEAARDPSLRPARTVLVGSLSW,3.06 ± 0.32,2.88 ± 0.27
FMAYEQIKRLVGSDQETLRIHERL [SLC25A25],3.08 ± 0.26,2.97 ± 0.42
AIALANSDSMHIEDVEAVQKLQDV [ESRRG],4.53 ± 0.092,4.66 ± 0.15
MKVKVIPVLEDNYMYLVIEELTRE [HAGHL],2.94 ± 0.55,2.95 ± 0.56
SHRFPEDHDPTIEDAYKIRIRIDD [RIT1],3.98 ± 0.19,4.28 ± 0.31
FLDLMETIDKQREEMAKSSRASAA [LRRC45],3.71 ± 0.11,4.08 ± 0.3
RWDLSPEQIKTRTEELIVQTKQVY [NLN],3.44 ± 0.32,3.8 ± 0.088
LCEKEPLGNVLFSPICLSTSLSLA [SERPINB5],2.13 ± 0.34,2.18 ± 0.34
LATTEKKTEQQRRREKAVHRLRVQ [NOP53],4.34 ± 0.19,4.37 ± 0.17
DERVLENVEHYQELKKMVQQSDLG [ALG2],4.95 ± 0.38,4.8 ± 0.28
VNSDYETYMSADDLRINLWNFEIT [PPP2R2B],2.19 ± 0.23,2.4 ± 0.23
DAKDELEERLERCMSIVTSMTAGV [INTS3],4.13 ± 0.3,4.09 ± 0.33
LLCGAAFGRLVANVLKSYIGLGHI [CLCN6],2.66 ± 0.42,3.14 ± 0.46
NYECNLYTFLYLVCISTKTQCSEE [FEM1B],3.11 ± 0.38,2.81 ± 0.4
TKVGGTNPNGGSFEEVLSSTAHAS [TPD52L1],4.78 ± 0.26,4.69 ± 0.26
EIHSKTTAYSRLNETQPIDLSGLP [RNF180],3.6 ± 0.14,3.75 ± 0.25
LEECLRLLEATCPFGENAEFPADI [NFE2L1],3.61 ± 0.68,3.61 ± 0.23
EAIKGLNGQKPLGAAEPITVKFAN [ELAVL3],3.94 ± 0.22,4.06 ± 0.28
IERSSSFSSITDSTMSLNIITVTL [DVL3],2.8 ± 0.42,2.85 ± 0.23
EGLLNTYQELLGLSFEQMTDAHVW [NLN],2.41 ± 0.32,2.49 ± 0.38
FIYSLKQMLLNVEANSAKVQEDLE [FSD1],2.55 ± 0.16,2.38 ± 0.28
VNDLRGSDSIAYDKGEKLLRCKLA [ADD1],3.34 ± 0.21,3.48 ± 0.48

Sequence,protein stability index (treatment: DMSO),"protein stability index (treatment: MLN4924 1 uM, 8 h)"
VFFVCFVPYHIARIPYTKSQTEAH [P2RY14],3.57 ± 0.74,3.17 ± 0.35
ISGLRFETQLKTLAQFPNTLLGNP [KCNA1],2.46 ± 0.23,2.41 ± 0.11
PLFEDVQMLRKTVKDEAHQAQKDP [PPP2R5C],5.37 ± 0.22,5.3 ± 0.17
CTFSLTHPANRSCRETGSFLDLFR [SLC22A15],2.31 ± 0.33,2.14 ± 0.45
ARQLQLSDPQTVAGAFGYFQQDTK [LPCAT4],3.82 ± 0.41,3.9 ± 0.16
LIQQFLTLRPDQQLHIFNTLRSHL [CDS2],2.37 ± 0.16,2.34 ± 0.27
KLKLTNNHLDPFGHIILNSMHKYQ [TBX5],2.26 ± 0.37,2.34 ± 0.25
PFVCPECGQPCSQKSGLIRHQKIH [ZNF649],4.65 ± 0.3,4.78 ± 0.3
VTVLEDLEKGLEPEPQVPGPAHGP [ZNF232],4.99 ± 0.27,4.874 ± 0.039
SQKDLENDPSVNSQAQETTIIASN [TOR1AIP2],5.37 ± 0.16,5.28 ± 0.29
NCIGIRDFALHYCLHHVHYLATEY [GAN],3.1 ± 0.51,3.32 ± 0.33
SFFAAQAGARKIYAVEASTMAQHA [CARM1],2.8 ± 0.45,2.78 ± 0.69
FLSGLAFRVFHCTQYVRHSSDPFY [TPH1],2.67 ± 0.27,2.99 ± 0.4
CQEQIEALLESSLRQAQQNMDPKA [CCND1],4.85 ± 0.079,4.63 ± 0.19
SDLEDMEEEEGTRSPTLEPPRGRS [SMG5],5.37 ± 0.16,5.39 ± 0.2
EVIEKPENDPEWWKCKNARGQVGL [NCK2],4.28 ± 0.31,4.368 ± 0.038
HTPGTPKSAILVPSEKKVAIIRTP [MAP2],3.96 ± 0.057,4.02 ± 0.2
AAVVHHFESFPAGSTLIFYKYCDH [TOR1AIP2],2.37 ± 0.43,2.23 ± 0.52
VCSQCGKVLEEGGFFEEKGAIFCP [PDLIM7],4.88 ± 0.22,4.81 ± 0.38
AEKRQIGDQEGPRPARSTLDELLG [FBF1],4.64 ± 0.22,4.93 ± 0.1
RGPPPRSGGPPPKRSAPSGPVRSS [RBMX],4.4 ± 0.2,4.56 ± 0.086
DVLSCEYYSPILDQWTPIAAMLRG [KLHL13],2.2 ± 0.46,2.36 ± 0.23
QFCAQRFGRKDHLTRHTKKTHSQE [PLAGL1],4.07 ± 0.43,4.18 ± 0.27

Sequence,protein stability index (treatment: DMSO),"protein stability index (treatment: MLN4924 1 uM, 8 h)"
DDKTDKRIFTFICKDSESNKHLCY [GULP1],2.47 ± 0.45,2.51 ± 0.26
LPCQHNLCRKCANDIFQAANPYWT [TRIM63],2.38 ± 0.18,2.29 ± 0.14
VRCEALTGELETLKERCAQDACQA [CCDC89],4.43 ± 0.39,4.25 ± 0.18
IRVPSVPPVPCVPSVPCTPAPQVG [KRT36],3.45 ± 0.27,3.57 ± 0.25
NAGLSSTAGLLREQVAQLKQKVMT [JUNB],3.42 ± 0.24,3.39 ± 0.42
ATRSIQVDGKTIKAQIWDTAGQER [RAB11A],4.28 ± 0.33,4.37 ± 0.19
LLHMPQPVNPELTAGPITGLVYRL [TRIM43],2.26 ± 0.3,2.67 ± 0.36
ELQKIVQAGDKDLDGQLDFEEFVH [SLC25A25],3.93 ± 0.046,4.19 ± 0.21
AALHIDLCKATSPADALQYLLQFA [INTS4],2.36 ± 0.51,2.29 ± 0.15
LQLKETLATQEPTDNQVRLRKRKE [DLC1],5.18 ± 0.3,5.32 ± 0.24
SKLRNYRKDLAKLHREVRSTPLTA [VTI1B],3 ± 0.25,3.26 ± 0.26
WGGQEDREPAGRWKEGRPRVEESG [PBXIP1],4.79 ± 0.21,5.05 ± 0.099
FLKEYFPIEVVTEGLLNTYQELLG [NLN],2.44 ± 0.51,2.52 ± 0.55
GKKDKHSQSPRAAGPREGHSHSHH [PBXIP1],5.32 ± 0.31,5.26 ± 0.1
IEDEDQILENSSQKENVFKCDSLK [FAN1],5.07 ± 0.1,5.01 ± 0.35
WLHALHLRQKGNRNTHKDLLRFAQ [FEM1B],2.44 ± 0.52,2.35 ± 0.15
GPAASEGAEQPPDLHCVLVTNPHS [GADD45A],4.97 ± 0.14,4.95 ± 0.1
NWIELLSGETWNPLKLHYQLRNVR [GOLPH3],2.43 ± 0.73,2.36 ± 0.61
SLISLSNNTGKNLELKFVSSLRRQ [TENT5D],2.34 ± 0.081,2.58 ± 0.098
GNAKGKILVLKTDSQDLVASFRVT [RBBP5],2.17 ± 0.19,2.11 ± 0.28
